# According to the DeepSol protein solubility set:
# Assay: soluble on expression in E. coli; label from the status in PepcDB or PDB records
row,Sequence,soluble on expression in E. coli
1,MNNNHYTYRVLWSQEDEEYVGLCAEFPSLSWLDAQAEKALKGIMDLVSEVVEDMQHNGEEVPVPLSHGKYSGKFQLRIPPELHRKLAIQAAENGVSLNRYISSKL,not soluble
2,MGSDKIHHHHHHMADIALFQDDAFSLSSLTAAINEQPHVPGRVGALGLFEEDGITTTTIQIERDGDTLSLVSAGERGSPSAIVVGSKRTMIPFNTVHLPQRAFVKADEIQNLRAFGSETELEALQTVVNRRLAKLRRQLDATHEFHRIGAIKGAVLDADGKTVLIDLLQYFGIEQTVIPFELGKADTEIRVKCLEVQDAIEDALGATTYTGVRVLCGRAFWNKLIVAKTVKETYLATAMAASLRGDAREALDFGGCTFERYRGRVGDIGYVADDEAYAVPEGVPELFVTRFAPADYVEAVNTTGLPYYAKQELAQFGKGVDIEAQSNPVHLCTRPKAIVKLKA,not soluble
3,MDYMERPKLGLIVREPYASLIVDGRKVWEIRRRKTRHRGPLGIVSGGRLIGQADLVGVEGPFSVEELLAHQEKHLAEEAFLRAYAKDEPLYAWVLENAFRYEKPLHVPRRPGRVMFVDLSEVRW,soluble
4,MGSDKIHHHHHHMSLHYSVLASGSTGNALYIESEQTRLLVDAGLTGKAMLALFDQIHRSPEKIDGLFVTHEHSDHIKGVGIMARKYNIPLYANEKTWAAMEAKIGKIDPALKFLWEVGEVKQFGDIEVESFNVSHDAADPMFFQFAHEGKRLAHITDTGYVSDRMKGVIRGADAYIFEANHDIGMLQMGHYPWSVKRRILGDYGHVSNEDAAIAMSEVLDDRTKRIHMAHLSKDNNMKELARMSVSQTLASRDVDLSKIQLLDTDPVIPTPLLKL,not soluble
5,MVRNRFIRKMKKNLFKSNHLSYLKSKWKVKITGQIKMDFDNLLNLEEQYYQEGFLEGQNENIKQSFLEGKQYGLQVGFQRFTLLGQMEGLCDVIESYGLHSPTLEKNIHTIRTLMKGLKMNNDDESVMEFERVLIKLKNKFRTILITLHRLVKDKRTPTVTFEVFEDVSRAIAGEIRGFVENEDIAKNKTKQNQAQSW,soluble
6,GPGSMKGKAGRSIAAISDVRAAVLRFCDEQLSRRLDTQPVAEVHQKVSACVQTVDPAMTPYIFGSTAVLGVHEQGSDVDFVCLSPTDVQDGKGADAVSEVAKGLQSDFLFRLGEVVKREHYLWGIELVRRTRVPVLRVKGGLGVDGVSFDVTANRRNGVRNSALLRAYFTQCPEARWLSMLVKQWSKKTGLNASVEGGCITSYGWNIMIVYYLLRRRLVTLVPVESCDVADIAPMPPHMPLESLQQGGQGLADMLMDFVSYYLDEFAPETEVMSLTRAAGETTTEMLSWTKQAEDMARIRGEKIHYRWCIEDPYEYDLNVGRNVTPFKLMLLRKHLERARETALLLLATPPPSATARSVK,not soluble
7,MCMDKNVMWLRERINKVIKALEENNMNGYLVNSKEELISKIEELTNSGDIVACGGSMSLFEAGVIDHLRSGRYEFLDRYKEGLKPEDIKKIYRDAFSSDVYFTSTNAITEEGEIYNVDGNGNRVAAMLYGPDKVIIVAGYNKIVENLSEAIQRNRRISAPANAKRLNKKTPCAKVGNCMDCKSPEKICREYTLIRSQSNSNRIHVIFLNEELGYLEHHHHHH,soluble
8,MALQSSVRAFKKPPRPLVDEVRFLRSWIEKPLHMGAVMPSGKLLARTMARYVDIQSDGPVIELGPGTGAITNALVEHGVDQKRLVLLEFDPGFCALLRERFPLAKVVQGDAYRLRDSLWDALEIPATAVVSGLPLVTKPMLTRMKLIRDAFTLLEPGAPFVQFTYSVAPPIPKSLPGVSTEGSERIWMNVPPARVWVYRKRLEHHHHHH,not soluble
9,MGSDKIHHHHHHMLLKNASFYDDEVLKRADIRLKDSLITEIKENLSPINNEEVIECRDLFVLPSFIDLSVTGLEGYENLKQKAFKGGVGLLNVFNCDQSGIKNIMAIKNNQLADIATLKNKGGEILIAPSDAFLELISHYAKSYNLPLLISLENSFEALNSGELAYELGQNFVENAFENTRLVRFMEVSRALQIPVLLDKVNSITTLKLIKAFNDLGAKLQAQTPLSHLVLDESVYEDYEPRFKIAPPLRDKESQNALKEALKNNEIAMLTSLHASKNSNAQLFEESAFGCESIEDAFSVAYTFLVQKKVISFQQLIKVMAINQAKFLKLNAGEVKENQLANLMIVDLNAQTRVSNQNSPFYGLELYGEVQRMILKGQTTFIKENACKKS,not soluble
10,SKKQLDMSQKKTLTIDSELRFDELSLDTVRDFEKLAPFGMDNKKPVFLLKDFKVSQARVMGQNGAHLKLKLEQDGQALDLVAFNMGSQLQEFQQAQHLELAVTLSVNQWNGATTLQ,not soluble
